According to doi:10.1101/2023.12.22.572978 (bioRxiv, 2023):

Target: the molecule itself
Test: FRET or BRET

B1: InlB321 K280C mutant, fluorophore-labeled (T variant) (domain or fragment, Listeria monocytogenes, UniProt P0DQD2 36-321, looked up)
chain: ETITVPTPIKQIFSDDAFAETIKDNLKKKSVTDAVTQNELNSIDQIIANNSDIKSVQGIQYLPNVTKLFLNGNKLTDIKPLANLKNLGWLFLDENKVKDLSSLKDLKKLKSLSLEHNGISDINGLVHLPQLESLYLGNNKITDITVLSRLTKLDTLSLEDNQISDIVPLAGLTKLQNLYLSKNHISDLRALAGLKNLDVLELFSQEALNKPINHQSNLVVPNTVKNTDGSLVTPEIISDDGDYECPNVKWHLPEFTNEVSFIFYQPVTIGKAKARFHGRVTQPLKE
modifications: Cy3B (donor) or ATTO 647N (acceptor) attached by maleimide chemistry to the single cysteine at position 280
  binding result: binds
